B1: scFv No. L2 12B (scFv, V domains shown)
VH: QVQLQESGPELVKPGALVKISCKASGYTFTSYWMHWVKQRPGQGLEWIGEIDPSDSYTNYNQKFKGKATLTVDKSSNTAYMQLSSLTSEDSAVYYCARSDYGSSHFDYWGQGTTVTVSS
VL: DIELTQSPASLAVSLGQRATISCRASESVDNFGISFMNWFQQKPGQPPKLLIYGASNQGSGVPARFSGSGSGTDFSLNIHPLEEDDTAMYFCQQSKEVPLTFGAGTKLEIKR
B2: scFv No. L2 11C (scFv, V domains shown)
VH: QVQLQESGPELVRPGASVKMSCKASGYTFTTYWIHWMKQRPGQGLQWIGMIDPSNSETRLNQNFRDKATLSVDKSSNKAYMQLSSLTSEDSAIYYCARWDYGSGHFDYWGQGTTVTVSS
VL: DIELTQSPASLAASVGETVTITCRASENIYYSLAWYQQKQGKSPQLLIYSASALEDGVPSRFSGSGSGTQYSLKINNMQPEDTATYFCKQTYDVPWTFGGGTKLEIKR
B3: scFv No. L3 11D (scFv, V domains shown)
VH: EVQLQQSGAELVKPGASVKLSCKASGYTFTSYWMHWVKQRPGQGLEWIGEIDPSDSYTNYNQKFKGKATLTVDKSSSTAYMQLSSLTSEDSAVYYCARSDYGSSHFDYWGQGTTVTVSS
VL: not shown
B4: scFv No. S4 2D (scFv, V domains shown)
VH: EVKLQQSGPELVKPGASVKMSCKASGYAFISFVMHWVKQKPGQGLEWIGFINPYNDGTKYNEKFKDKATLTSDKSSSTAYMELSSLTSEDSAVYYCASGDYDRAMDYWGQGTTVTVSS
VL: DIELTQSPTTMAASPGEKITITCSASSSISSNYLHWYQQKPGFSPKLLIYRTSNLASGVPARFSGSGSGTSYSLTIGTMEAEDVATYYCQQGSSIPRTFGGGTKLEIKR

What was measured:
[1] = target: EGFR on EGFR-bearing tumor cells (human, UniProt P00533); test: cell ELISA on A431 and MDA MB 468 cells, bacterial supernatants
Experimental: The scFvs were tested by ELISA for binding to three tumor cell lines. […] Cell line SK-MEL-23 is a ganglioside-bearing melanoma cell line and was included as a negative control.
Cells were grown to confluency in poly-D-lysine-treated 96 well tissue culture trays (Nunc). Cells were washed with DMEM and blocked at 37° C. for 2 h with PBS containing 2.5% BSA. After aspiration, supernatants were added to each well together with an equal volume of 2xYT media containing 4% milk powder and incubated at 40C for 1 h. Bound scFvs were detected as described above.

purified EGFR = purified EGFR (human, UniProt P00533); test: ELISA, purified EGFR, bacterial supernatants
Experimental: Binding of scFvs to EGFR. The concentrations of scFvs in bacterial supernatants were estimated and the scFvs tested by ELISA for binding to purified EGFR.
Antigen-binding ELISAs were carried out with EGFR-coated plates (2.5 µg/ml). Supernatants containing scFvs were diluted in PBSM and added to the plates. Bound scFvs were detected using 9E10 antibody as described above. Supernatants were also tested for binding to a panel of unrelated proteins and plastic. ELISA plates were coated overnight at 100 µg/ml with ovalbumin, hen egg lysozyme, cytochrome c, glyceraldehyde 3-phosphate dehydrogenase, murine albumin (CBA strain), and BSA. Undiluted supernatants containing 2% milk powder were added in duplicate to the coated plates and bound scFvs detected as described above.

[2] = target: murine albumin (CBA strain) (murine, UniProt P07724); test: ELISA, bacterial supernatants
Experimental: (§1) The scFvs were tested by ELISA for binding to plastic and to a panel of unrelated proteins (ovalbumin, hen egg lysozyme, cytochrome c, glyceraldehyde 3-phosphate dehydrogenase, CBA albumin, and BSA).
(§2) Supernatants containing scFvs were diluted in PBSM and added to the plates. Bound scFvs were detected using 9E10 antibody as described above. Supernatants were also tested for binding to a panel of unrelated proteins and plastic. ELISA plates were coated overnight at 100 µg/ml with ovalbumin, hen egg lysozyme, cytochrome c, glyceraldehyde 3-phosphate dehydrogenase, murine albumin (CBA strain), and BSA. Undiluted supernatants containing 2% milk powder were added in duplicate to the coated plates and bound scFvs detected as described above.

ovalbumin = ovalbumin (Gallus gallus (Chicken), UniProt P01012); test: ELISA, bacterial supernatants
Experimental: as §1, §2

hen egg lysozyme = hen egg lysozyme (hen, UniProt P00698); test: ELISA, bacterial supernatants
Experimental: as §1, §2

BSA = BSA (Bos taurus (Bovine), UniProt P02769); test: ELISA, bacterial supernatants
Experimental: as §1, §2

Binder | binding result [1] | binding result (purified EGFR) | binding result [2] | binding result (ovalbumin) | binding result (hen egg lysozyme) | binding result (BSA)
B1 | binds | binds | no binding | no binding | no binding | no binding
B2 |  |  | no binding | no binding | no binding | no binding
B3 |  |  | no binding | no binding | no binding | no binding
B4 |  |  | no binding | no binding | no binding | no binding
